# In publication PMC7018833, “Siroheme synthase orients substrates for dehydrogenase and chelatase activities in a common active site” (Nature Communications, 2020):
# Numbering of substitutions follows the chain as printed. Names and notes keep the numbering of the source.
# B1: S128A S. enterica siroheme synthase (CysG) (enzyme)
# chain: MDHLPIFCQLRDRDCLIVGGGDVAERKARLLLEAGARLTVNALTFIPQFTVWANEGMLTLVEGPFDETLLDSCWLAIAATDDDTVNQRVSDAAESRRIFCNVVDAPKAASFIMPSIIDRSPLMVAVSAGGTSPVLARLLREKLESLLPQHLGQVARYAGQLRARVKKQFATMGERRRFWEKFFVNDRLAQSLANADEKAVNATTERLFSEPLDHRGEVVLVGAGPGDAGLLTLKGLQQIQQADIVVYDRLVSDDIMNLVRRDADRVFVGKRAGYHCVPQEEINQILLREAQKGKRVVRLKGGDPFIFGRGGEELETLCHAGIPFSVVPGITAASGCSAYSGIPLTHRDYAQSVRLVTGHLKTGGELDWENLAAEKQTLVFYMGLNQAATIQEKLIAFGMQADMPVALVENGTSVKQRVVHGVLTQLGELAQQVESPALIIVGRVVALRDKLNWFSNH
# notes: also called S128A-CysG; source: E. coli LMG194 (pBAD vector), purified (Ni-NTA, anion-exchange, size exclusion chromatography)
# B2: D104A/S128A CysG (enzyme)
# chain: B1 chain with D104A
# notes: source: E. coli LMG194 (pBAD vector), purified (Ni-NTA, anion-exchange, size exclusion chromatography)
# B3: D104N/S128A CysG (enzyme)
# chain: B1 chain with D104N
# notes: as for B2
# B4: P133G/S128A CysG (enzyme)
# chain: B1 chain with P133G
# notes: as for B2
# B5: P133H/S128A CysG (enzyme)
# chain: B1 chain with P133H
# notes: as for B2
# B6: R260A/S128A CysG (enzyme)
# chain: B1 chain with R260A
# notes: as for B2
# B7: R261A/S128A CysG (enzyme)
# chain: B1 chain with R261A
# notes: as for B2
# B8: D262A/S128A CysG (enzyme)
# chain: B1 chain with D262A
# notes: as for B2
# B9: D262N/S128A CysG (enzyme)
# chain: B1 chain with D262N
# notes: as for B2
# Biological target: the molecule itself
# Experiment: crystal structure
row,Protein,binding result
1,B1,binds
2,B2,binds
3,B3,binds
4,B4,binds
5,B5,binds
6,B6,binds
7,B7,binds
8,B8,binds
9,B9,binds
